The values below come from patent publication US10975123B2, “Mutant Akt-specific capture agents, compositions, and methods of using and making” (California Institute of Technology, priority 2014, dated 2021).

Primed or numbered codes have the meaning given here. Where no end group is shown, it is not given here. [ ]: non-standard residue; d: D form. PEG5′ = PEG5 linker

Assay [1] deals with T1, HEK-293T cells expressing GFP-tagged E17K PH Domain (Homo sapiens, UniProt P31749, E17K).
T1 construct: transfected to express GFP-tagged E17K or GFP-tagged WT PH Domain proteins; expressed in transfected cells; host or cells: HEK-293T
T1 sequence (P31749 5-108 E17K limits assumed): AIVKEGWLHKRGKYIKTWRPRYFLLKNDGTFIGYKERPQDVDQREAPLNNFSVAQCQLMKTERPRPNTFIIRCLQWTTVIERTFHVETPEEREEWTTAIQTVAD
Put plainly: Cell imaging, cells expressing E17K protein. The class given is cell-based. The following applies: confocal imaging, 50 nM, compared with WT cells, in words. The source says:
The yleaf ligand was then labeled with both a Tat cell-penetrating peptide^22 and a Cy5 dye (FIG. 2a). The combination of the GFP label on the protein and the Cy5 label on the dye permitted the use of multi-color fluorescence microscopy for interrogating any spatial registry between the two fluorescent labels, as well as tracking the efficiency of the protein expression in the cells. Live HEK-293T cells expressing these GFP-tagged proteins were exposed to varying concentrations of the modified yleaf anchor ligand 6 for one hour. The cells were then incubated in fresh media for one hour before being thoroughly washed in PBS to remove weakly and nonspecifically bound PCC and fixed for fluorescence microscopy measurements.
However, the level of the PCC agent retained by the cells was substantially different (FIG. 4). […] Pearson's correlation coefficient was used to quantify the co-localization of the two different dyes^23 by calculating over four representative images for each of the WT or E17K mutant cells and averaging the results. […] The Cy5 fluorescence intensity on a per cell basis has also been calculated for the cells expressing the WT and E17K proteins, and this difference is again statistically significant (p=0.00018). […]

The next assay concerns the target full length Akt1E17K (Homo sapiens, UniProt P31749, E17K). Nature of the assay: Fluorescence polarization binding to full-length E17K Akt1. The following applies: triligand 9, triplicate, in words. The method, then: FIG. 2: Anchor ligand structure and characterization. (FIG. 2A) The peptide anchor ligand, yleaf (SEQ ID NO: 43), which was discovered using the epitope-targeting technique. The different sets of R groups indicate the modifications that were made to perform the various experiments described. (FIG. 2B) Point ELISA for specificity obtained by immobilizing biotinylated yleaf (SEQ ID NO: 43) anchor ligand 2 onto a Neutravidin plate, then incubating with a 6 His-tagged epitope (“6 His” disclosed as SEQ ID NO: 4) 3. […] (FIG. 2C) Binding curves of yleaf (SEQ ID NO: 43) anchor ligand 4 to the full-length WT or E17K mutant Akt1 proteins obtained in solution by fluorescence polarization. A saturation point for the WT ligand was not reached due to the prohibitively high protein concentration required. (FIG. 2D) Full binding curves of yleaf (SEQ ID NO: 43) anchor ligand 4 to the WT or E17K mutant epitopes. […] All assays were performed in triplicate and averaged. Error bars indicate standard deviation.
FIG. 5: The PCC agent triligand development strategy, structure, and inhibition data. (FIG. 5A) The yleaf (SEQ ID NO: 43) anchor ligand with a C-terminal alkyne 2 was screened against an azide-terminated library in the presence of the full-length PH Domain to identify a biligand. The biligand 7 was then appended with an N-terminal azide and screened against an alkyne library to identify a triligand. […]

Chain of full length Akt1E17K (P31749 whole entry E17K): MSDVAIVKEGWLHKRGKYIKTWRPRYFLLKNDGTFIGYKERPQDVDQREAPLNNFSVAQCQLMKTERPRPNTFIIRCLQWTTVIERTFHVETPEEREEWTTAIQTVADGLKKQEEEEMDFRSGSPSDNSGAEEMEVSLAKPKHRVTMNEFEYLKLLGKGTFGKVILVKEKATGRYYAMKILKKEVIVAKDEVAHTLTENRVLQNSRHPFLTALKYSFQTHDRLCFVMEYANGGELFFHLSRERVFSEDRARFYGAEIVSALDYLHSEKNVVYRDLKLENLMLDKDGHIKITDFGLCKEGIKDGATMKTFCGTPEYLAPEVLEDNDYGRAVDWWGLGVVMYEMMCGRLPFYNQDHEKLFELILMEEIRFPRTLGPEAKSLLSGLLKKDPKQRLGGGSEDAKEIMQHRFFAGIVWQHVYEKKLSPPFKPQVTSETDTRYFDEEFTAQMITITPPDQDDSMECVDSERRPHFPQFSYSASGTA

With “PEG5-TAT-Cy5: control construct with no anchor ligand peptide, used in cell imaging ([PEG5′]YGRKKRRQRR; not fully specified (C-terminus); numbers in words are those of the source; also: Cy5 dye attached, site not given here)”, the “retention of Cy5-labeled ligand in cells expressing E17K PH Domain (Cy5 signal)” value in assay [1] is “looks the same as the WT PH Domain images”.

Consider “triligand 9: form of the ivdae-yleaf-yksy triligand used in fluorescence polarization assays (peptide 1 [dI][dV][dD][dA][dE]; peptide 2 [dY][dL][dE][dA][dF]; peptide 3 [dY][dK][dS][dY]; also: three chains joined by triazole click linkages (Lys(N3) and Pra handles), places not settled)”, for which the “selectivity for E17K over WT full-length protein by fluorescence polarization” value with full length Akt1E17K was “E17K mutant selectivity is retained”.
